Reference: PMC10499894
“And” between values parts separate entries of the source, which are not always exact repeats. Equal entries are not always repeated.

How the values were obtained:
[1] = target: RcpA_(strep), C-terminally strep-tagged RcpA (P. aeruginosa PAO1) (UniProt Q9HW96); assay: cryo-EM structure; RcpA_(strep)-TadD_(FLAG) complex co-expressed in E. coli, double pulldown (StrepTrap, ANTI-FLAG M2), 0.06% DDM; graphene oxide support and tilted collection; C13 map at 2.7 Å, focussed TadD map; on holey carbon grids TadD was stripped off
[2] = target: TadD, native sequence, tag not given (P. aeruginosa PAO1); assay: pull-down; cysteine mutants of RcpA and TadD co-expressed in E. coli, single strep tag pulldown; RcpA-TadD particles counted on five negative stain EM micrographs per mutant (Laplacian-of-Gaussian blob detection), SDS-PAGE
[3] = target: _(strep)RcpA, N-terminally strep-tagged RcpA (P. aeruginosa PAO1) (UniProt Q9HW96); assay: pull-down; RcpA constructs with the strep tag at the N-terminus co-expressed with TadD in E. coli; single strep tag pulldown; SDS-PAGE, Western blot and negative stain EM 2D class averages
[4] = target: RcpA, endogenous in P. aeruginosa PAO1 (P. aeruginosa PAO1 (endogenous)) (UniProt Q9HW96); assay: pull-down; P. aeruginosa PAO1 with chromosomal tadD_(strep), native expression levels; membranes extracted with DDM; Strep-Tactin Sepharose; eluate seen by anti-strep Western blot and negative stain EM 2D class averages
[5] = target: TadD D139C (P. aeruginosa PAO1); assay: pull-down; cysteine mutants of RcpA and TadD co-expressed in E. coli, single strep tag pulldown; RcpA-TadD particles counted on five negative stain EM micrographs per mutant (Laplacian-of-Gaussian blob detection), SDS-PAGE

## RcpA_(strep), C-terminally strep-tagged RcpA (from UniProt Q9HW96 1-416) (natural protein)
[1]
  stoichiometry N: 13 and 14

## RcpA L414C (from UniProt Q9HW96 1-416) (natural protein)
[2]
  RcpA-TadD particles relative to native levels: 9%

## _(strep)RcpA, N-terminally strep-tagged RcpA (from UniProt Q9HW96 1-416) (natural protein)
[3]
  stoichiometry N: 13 and 14

## RcpA S415C (from UniProt Q9HW96 1-416) (natural protein)
[2]
  RcpA-TadD complex relative to native levels: 10%
  RcpA-TadD particles relative to native levels: 14%

## RcpA, endogenous in P. aeruginosa PAO1 (from UniProt Q9HW96 1-416) (natural protein)
[4]
  stoichiometry N: 13 and 14

## RcpA, native sequence, in the cysteine cross-linking assay (tag not stated) (from UniProt Q9HW96 1-416) (natural protein)
[5]
  RcpA-TadD particles relative to native TadD: 2%
